Tested on: Human sebocytes
Assay: Neutral fat detection (Nile red staining, fluorescence intensity) in linoleic acid-induced sebocytes
Format: cell-based
Details: for fluorescence intensity (lipid content, Nile red): FIG. 1 D, two days, negative control about 1.0
Description: Human sebocytes (Cat. No. 36079-01, Celprogen, Torrance, Calif., USA) were cultured in Dulbecco's Modified Eagle Medium (DMEM): Nutrient Mixture F-12 (DMEM/F12) purchased from Thermo Fisher Scientific Limited (Barrington, Ill., USA), 10% fetal bovine serum (FBS) purchased from Gibco, Grand Island, N.Y., USA and penicillin/streptomycin (100 IU/50 […]), incubated at 37° C. in the 5% CO2 atmosphere.
Human sebocytes were implanted in 24- or 96-well plates. After 24 hours of culture, the cells were divided into a negative control group, a positive control group and an experimental group. […] The treated human sebocytes were cultured for two days. Human sebocytes were fixed with 4% formaldehyde at room temperature. After 60 minutes of fixation, the cells were washed with PBS and stained with Nile Red solution (1 μg/ml in PBS) at 37° C. for 15 minutes. Next, the cells were washed and observed under a fluorescent microscope. Fluorescence intensity is measured with fluorometer Spectra Max i3.

B1: lactoferrin (protein)
chain: APRKNVRWCTISQPEWFKCRRWQWRMKKLGAPSITCVRRAFALECIRAIAEKKADAVTLDGGMVFEAGRDPYKLRPVAAEIYGTKESPQTHYYAVAVVKKGSNFQLDQLQGRKSCHTGLGRSAGWIIPMGILRPYLSWTESLEPLQGAVAKFFSASCVPCIDRQAYPNLCQLCKGEGENQCACSSREPYFGYSGAFKCLQDGAGDVAFVKETTVFENLPEKADRDQYELLCLNNSRAPVDAFKECHLAQVPSHAVVARSVDGKEDLIWKLLSKAQEKFGKNKSRSFQLFGSPPGQRDLLFKDSALGFLRIPSKVDSALYLGSRYLTTLKNLRETAEEVKARYTRVVWCAVGPEEQKKCQQWSQQSGQNVTCATASTTDDCIVLVLKGEADALNLDGGYIYTAGKCGLVPVLAENRKSSKHSSLDCVLRPTEGYLAVAVVKKANEGLTWNSLKDKKSCHTAVDRTAGWNIPMGLIVNQTGSCAFDEFFSQSCAPGADPKSRLCALCAGDDQGLDKCVPNSKEKYYGYTGAFRCLAEDVGDVAFVKNDTVWENTNGESTADWAKNLNREDFRLLCLDGTRKPVTEAQSCHLAVAPNHAVVSRSDRAAHVKQVLLHQQALFGKNGKNCPDKFCLFKSETKNLLFNDNTECLAKLGGRPTYEEYLGTEYVTAIANLKKCSTSPLLEACAFLTR
modifications: bovine lactoferrin
- lipid content reduced compared with positive control group (LA) (FIG. 1, 0.1 mM LA + 100 to 400 μg/mL lactoferrin): 25%
- fluorescence intensity (lipid content, Nile red) (0.1 mM LA + 100 μg/mL lactoferrin): about 1.5
- fluorescence intensity (lipid content, Nile red) (0.1 mM LA + 200 μg/mL lactoferrin): about 1.5
- fluorescence intensity (lipid content, Nile red) (0.1 mM LA + 400 μg/mL lactoferrin): about 1.5
- concentration dependence of inhibition of LA-induced lipid content (FIGS. 1-4, lactoferrin 100-400 μg/mL, peptides 25-100 μg/mL): dose-dependent manner
